This sample holds only a part of the variants without activity.

From the RNAGym collection of RNA variant scans (doi:10.1073/pnas.2313332121) come the findings set out here.

First the molecules themselves.
B1: TPR 5TU (parent)
chain: GGAUCUUCUCGAUCUAACAAAAAAGACAAAUCUGCCACAAAGCUUGAGAGCAUCUUCGGAUGCAGAGGCGGCAGCCUUCGGUGGCGCGAUAGCGCCAACGUUCUCAACUAUGACACGCAAAACGCGUGCUCCGUUGAAUGGAGUUUAUCAUG

The data set covers variants of B1. Briefly: polymerase ribozyme fitness, log enrichment relative to wild type (log ratio); higher = more active; in vitro selection for triplet polymerase activity. In a few lines: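 Input and output libraries were sequenced on Illumina after a single in vitro selection round, run in triplicate on PCR-built, transcribed mutant libraries of each subunit of a heterodimeric triplet polymerase ribozyme. Selection annealed libraries to a biotinylated primer, the partner subunit and triplets, incubated them frozen at −7 °C, then gel-excised extended constructs for streptavidin-bead capture and RT-PCR. Genotypes with ≥10 input reads and ≥1 read per output were kept. Fitness is the logarithm, taken in base 2, of genotype enrichment divided by wild-type enrichment, using inverse-variance-weighted replicate averages.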
Consider GGAUCUUCUCGAUCUAACAAAAAAGACAAAUCUGCCACAAAGCUUGAGAGCAUCUUCGGAUGCAGAGGCGGCAGCCUUCGGUGGCGCGAUAGGGCCAACGUUGUCAACUAUGACACGCAAAACGCGUGCUCCGUUGAAUGGAGUUUAUCAUG [C93G C103G], for which the “polymerase ribozyme fitness (log ratio)” value is no more than -4.2.

On to GGAUCUUCUCGAUCUAACAAAAAAGACAAAUCUGCCACAAAGCUUGAGAGCAUCUUCGGAUGCAGAGGCGGCAGCCUUCGGUGGCGCGAUAGUGCCUACGUUCUCAACUAUGACAAGCAAAACGCGUGCUCCAUUGAAUGGAGUUUAUCAUG [C93U A97U C116A G133A], for which the “polymerase ribozyme fitness (log ratio)” value was no more than -4.2.

In the case of GGAUCUUCUCGAUCUAACAAAAAAGACAAAUCUGCCACAAAGCUUGAGAGCAUCUUCGGAUGCAGAGGCGGCAGCCUUCGGUGGCGCGAUAGGGCCAACGUUCUCAACUAUGACACGCAAAACGCGUGCUCCGUUGAAUGGCGUUUAUCAUG [C93G A142C], the “polymerase ribozyme fitness (log ratio)” value is -4.02.

GGAUCUUCUCGAUCUAACAAAAAAGACAAAUCUGCCACAAAGCUUGAGAGCAUCUUCGGAUGCAGAGGCGGCAGCCUUCGGUGGCGCGAUAGGGCCAACGUUCUCAACUAUGACACGCAAAACGCGUGCUCCGUUGAAUGGUGUUUAUCAUG [C93G A142U]: the “polymerase ribozyme fitness (log ratio)” value is -3.03.

For the variant GGAUCUUCUCGAUCUAACAAAAAAGACAAAUCUGCCACAAAGCUUGAGAGCAUCUUCGGAUGCAGAGGCGGCAGCCUUCGGUGGCGCGAUAGUGCCAACGUUCUCCACUAUGACACGCAAAACGCGUGCUCCGUUGAAUGGAGUUUAUCAUG [C93U A106C], the “polymerase ribozyme fitness (log ratio)” value is -1.75.

Take GGAUCUUCUCGAUCUAACAAAAAAGACAAAUCUGCCACAAAGCUUGAGAGCAUCUUCGGAUGCAGAGGCGGCAGCCUUCGGUGGCGCGAUAGGGCCAACGUUCUCAACUAUGACACGCAAAACGCGUGCUCCGUUGAAUGGAGUUUAUUAUG [C93G C149U]: the “polymerase ribozyme fitness (log ratio)” value was -4.08.

Regarding GGAUCUUCUCGAUCUAACAAAAAAGACAAAUCUGCCACAAAGCUUGAGAGCAUCUUCGGAUGCAGAGGCGGCAGCCUUCGGUGGCGCGAUAGGGCCAACGUUCUCAACUAUGACACGCAAAACGCGUGCUCCGUUGAAUGGAGUUUAUCGUG [C93G A150G], the “polymerase ribozyme fitness (log ratio)” value was -4.14.

On to GGAUCUUCUCGAUCUAACAAAAAAGACAAAUCUGCCACAAAGCUUGAGAGCAUCUUCGGAUGCAGAGGCGGCAGCCUUCGGUGGCGCGAUAGGGCCAACGUUCUCAACUAUGACAUGCAAAACGCGUGCUCCGUUGAAUGGAGUUUAUCAUG [C93G C116U], for which the “polymerase ribozyme fitness (log ratio)” value is -3.07.

As for GGAUCUUCUCGAUCUAACAAAAAAGACAAAUCUGCCACAAAGCUUGAGAGCAUCUUCGGAUGCAGAGGCGGCAGCCUUCGGUGGCGCGAUAGGGCCUACGUUCUCAACUAUGACACGCAAAACGCGUGCUCCGUUGAAUGGAGUGUAUCAUG [C93G A97U U145G], the “polymerase ribozyme fitness (log ratio)” value was no more than -4.2.

With GGAUCUUCUCGAUCUAACAAAAAAGACAAAUCUGCCACAAAGCUUGAGAGCAUCUUCGGAUGCAGAGGCGGCAGCCUUCGGUGGCGCGAUAGGGCCAACGCUCUCAACUAUGACACGCAAAACGCGUGCUCCGUUGAAUGGAGUUUAUCAUG [C93G U101C], the “polymerase ribozyme fitness (log ratio)” value was -3.2.

GGAUCUUCUCGAUCUAACAAAAAAGACAAAUCUGCCACAAAGCUUGAGAGCAUCUUCGGAUGCAGAGGCGGCAGCCUUCGGUGGCGCGAUAGGGCCAACGUUCUCAAGUAUGACACGCAAAACGCGUGCUCCGUUGAAUGGCGUUUAUUAGG [C93G C108G A142C C149U U151G]: the “polymerase ribozyme fitness (log ratio)” value was no more than -4.2.

GGAUCUUCUCGAUCUAACAAAAAAGACAAAUCUGCCACAAAGCUUGAGAGCAUCUUCGGAUGCAGAGGCGGCAGCCUUCGGUGGCGCGAUAGGGCCAACGUUCUCAACUAUGACACGCAAAACGCGUGCUCCGUUGAAUGCAGUUUAUCAUG [C93G G141C]: the “polymerase ribozyme fitness (log ratio)” value is -3.36.

In the case of GGAUCUUCUCGAUCUAACAAAAAAGACAAAUCUGCCACAAAGCUUGAGAGCAUCUUCGGAUGCAGAGGCGGCAGCCUUCGGUGGCGCGAUAGGGCCAACGUUCUAAACUAUGACACGCAAAACGCGUGCUCCGUUUAAUGGAGUUUAUCAUG [C93G C105A G136U], the “polymerase ribozyme fitness (log ratio)” value is no more than -4.2.

For the variant GGAUCUUCUCGAUCUAACAAAAAAGACAAAUCUGCCACAAAGCUUGAGAGCAUCUUCGGAUGCAGAGGCGGCAGCCUUCGGUGGCGCGAUAGGGCCACCGUUCUCAACUAUGACACGCAAAACGCGUGCUCCGUUGAAUGGAGUUUAUCAUG [C93G A98C], the “polymerase ribozyme fitness (log ratio)” value was -2.81.

With GGAUCUUCUCGAUCUAACAAAAAAGACAAAUCUGCCACAAAGCUUGAGAGCAUCUUCGGAUGCAGAGGCGGCAGCCUUCGGUGGCGCGAUAGGGCCAUCGUUCUCAACUAUGACACGCAAAACGCGUGCUCCGUUGAAUGGAGUUUAUCAUG [C93G A98U], the “polymerase ribozyme fitness (log ratio)” value is -2.82.

As for GGAUCUUCUCGAUCUAACAAAAAAGACAAAUCUGCCACAAAGCUUGAGAGCAUCUUCGGAUGCAGAGGCGGCAGCCUUCGGUGGCGCGAUAGUGCCAGCGUUCUCAACUAUGACACGCAAAACGCGUGCUCCGUUGAAUGGAGUUUAUCAUG [C93U A98G], the “polymerase ribozyme fitness (log ratio)” value was -1.59.

Turning to GGAUCUUCUCGAUCUAACAAAAAAGACAAAUCUGCCACAAAGCUUGAGAGCAUCUUCGGAUGCAGAGGCGGCAGCCUUCGGUGGCGCGAUAGGGCCAACGUUCUCAACUAUGACACGCAAAACGCGUGCUCCGUUGAAUCGAGUUUAUCAUG [C93G G140C], the “polymerase ribozyme fitness (log ratio)” value was no more than -4.2.

In the case of GGAUCUUCUCGAUCUAACAAAAAAGACAAAUCUGCCACAAAGCUUGAGAGCAUCUUCGGAUGCAGAGGCGGCAGCCUUCGGUGGCGCGAUAGUGCCUACGUUCUCAACUAUGACACGCAAAACGAGUGCUCCGUUGAAUGGAGUUUAUCAUG [C93U A97U C125A], the “polymerase ribozyme fitness (log ratio)” value was -2.13.

On to GGAUCUUCUCGAUCUAACAAAAAAGACAAAUCUGCCACAAAGCUUGAGAGCAUCUUCGGAUGCAGAGGCGGCAGCCUUCGGUGGCGCGAUAGGGCCAACGUUCUCAGCUAUGACACGCAAAACGCGUGCUCCGUUGAAUGGAGUUUAUCAUG [C93G A107G], for which the “polymerase ribozyme fitness (log ratio)” value is no more than -4.2.
